Data: patent US20190127480A1 (Regeneron, published 2019)
Numbering of substitutions follows the chain as printed.

B1: H2M2691N (antibody, mouse IgG2, V domains shown)
VH: EVQLVESGGGLVQPGRSLRLSCAASGFTFDDYTMHWVRQAPGKGLEWVSGISWNSGSIGYADSVKGRFTISRDNAKKSLYLQMNSLRAEDTALYYCAKDNSGYGHYYYGMDVWGQGTTVTVAS
VL: EIVMTQSPATLSVSPGERATLSCRASQSVSSNLAWYQQKPGQAPRLLIYGASTRATGIPARFSGSGSGTEFTLTISSLQSEDFAVYYCQHYINWPLTFGGGTKVEIK
notes: H2M: mouse IgG2 Fc, human variable regions; divalent
B2: H1M2692N (antibody, mouse IgG1, V domains shown)
VH: EVQLVESGGGLVQPGGSLRLSCAASGFSFDDYTMHWVRQPPGKGLEWVSGISWNSGSIGYADSVKGRFTISRDNAKNSLYLQMNSLRAGDTALYYCAKDNSGYGYYYYYGMDVWGQGTTVTVSS
VL: B1 VL with H90Q, I92Y
notes: H1M: mouse IgG1 Fc, human variable regions; divalent
B3: H2M2707N (antibody, mouse IgG2, V domains shown)
VH: QVQLVESGGGVVQPGRSLRLSCIASGFTFRSYGMHWVRQAPGKGLEWVAMIYYDGNNKYYADSVRGRFTISRDNSKNTLYLQMNSLRADDTAVYFCARGPGYNWLDPWGQGTLVTVSS
VL: B1 VL with H90Q, I92N, W94R
notes: as for B1
B4: H2M2706N (antibody, mouse IgG2, V domains shown)
VH: B3 VH with I23A, G33A, I51V, K58Q
VL: B1 VL with S31R, E70D, H90Q, I92N, E105V
notes: as for B1
B5: H2M2774N (antibody, mouse IgG2, V domains shown)
VH: B3 VH with I23V, E46Q, N56K, D89E, V93M
VL: B1 VL with S28R, V29I, I58S, F83V, H90Q, Y91H, I92N
notes: as for B1
B6: H2M2708N (antibody, mouse IgG2, V domains shown)
VH: B3 VH with I23A, Y32F, K43R, Y53F, N56K, Q82E, N84S, D89E
VL: B1 VL with A19V, V29I, S31R, I58V, Y86F, Y87H, H90Q, I92N, W94R, K103E
notes: as for B1
B7: H2M2710N (antibody, V domains shown)
VH: B3 VH with I23A, Y32F, K43R, Y53F, N56K, Q82E, N84S, D89E
VL: B1 VL with S31R, I58V, Y86F, Y87H, H90Q, I92N, W94R, K103E
notes: as for B1
B8: H2M2711N (antibody, V domains shown)
VH: B3 VH with I23A, Y32F, K43R, Y53F, N56K, Q82E, N84S, D89E
VL: B1 VL with S31R, I58V, Y86F, Y87H, H90Q, I92N, W94R, K103E
notes: as for B1
B9: H2M2775N (antibody, mouse IgG2, V domains shown)
VH: B3 VH with I23A, Y32F, K43R, Y53F, N56K, Q82E, N84S, D89E
VL: EIVMTQSPATLSVSPGERVILSCRASQSISRNLAWYQQKPGQAPRLLIYGATTRATGVPARFSGSGSGTEFTLTISSLQSEDFAVFYCQQYNNRPLTFGGGTEVEIK
notes: as for B1
B10: H2M2885N (antibody, mouse IgG2, V domains shown)
VH: B3 VH with I23A, Y32F, K43R, Y53F, N56K, Q82E, N84S, D89E
VL: B9 VL
notes: as for B1
B11: H2M2886N (antibody, mouse IgG2, V domains shown)
VH: B3 VH with I23A, Y32F, K43R, Y53F, N56K, Q82E, N84S, D89E
VL: B9 VL
notes: as for B1
B12: H1M2712N (antibody, mouse IgG1, V domains shown)
VH: B1 VH with R16G, S25T, Y32F, A61V, K77N, H105Y, A122S
VL: B1 VL with Q27H, S31R, L33S, V85I, H90Q, I92N
notes: H1M: mouse IgG1 Fc; divalent
B13: H2M2777N (antibody, mouse IgG2, V domains shown)
VH: B3 VH
VL: B1 VL with H90Q, I92N, W94R
notes: as for B1
B14: H2M2862N (antibody, mouse IgG2, V domains shown)
VH: B3 VH with I23A, Y59K, A88V, D89E
VL: B1 VL with S31R, G57D, T72I, T74N, V85L, H90Q, I92S, K103E
notes: as for B1
B15: H2M3540N (antibody, mouse IgG2, V domains shown)
VH: QVHLEESGGGVVQPGRSLRLSCSASGFTFSSYAMHWVRQAPGKGLEWVAVIWYDGTNKYYLDSVKGRFTISRDNSKNTLFLQMNSLRAEDTAVYYCARDRGSIITHWGQGTLVTVSS
VL: DIQMTQSPSSLSASIGDRVTITCRASQNISSYLNWYQQKPGKAPKLLIYAASSLQSGVPSRFSGSGSGTDFTLTISSLQPEDFATYYCQQTYSTPPITFGQGTRLEIK
notes: as for B1
B16: H2M3541N (antibody, mouse IgG2, V domains shown)
VH: EVQLVESGGGLVRPGRSLRLSCAASGFTFDDYTMHWVRQAPGKGLEWVSDISWNSGTIGYADSVKGRFTISRDNAKNSLYLQMNSLRPEDTALYYCAKDMSGYAHYYYYGMDVWGQGTTVTVSS
VL: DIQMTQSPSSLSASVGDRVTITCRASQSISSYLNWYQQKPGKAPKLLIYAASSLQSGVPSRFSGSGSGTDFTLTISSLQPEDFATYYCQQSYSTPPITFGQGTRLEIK
notes: as for B1
B17: H2M3543N (antibody, mouse IgG2, V domains shown)
VH: B16 VH with R13Q, T57S, I70V, P88G, Y107G
VL: B15 VL with I15V, N28S, S30R, S31N, A43V, T91S, T94N
notes: as for B1
B18: H2M3547N (antibody, mouse IgG2, V domains shown)
VH: EAQLVESGGGLVQPGRSLRLSCTTSGFTFDDYTMHWVRQAPGKGLEWISDISWNGGTKGYADSVKGRFTISRDNAKNSLYLQMDSLRGEDTALYYCVKDKSGYGHFYFGLDVWGQGTTVTVSS
VL: DIQMTQSPSSLTASVGDRVTFTCRASQSISRHLSWYQQKPGKAPKLLIYAASSLESGVPSRFSGSGSGTDFTLTISSLHPEDFATYYCQQSYSNPPITFGQGTRLEIK
notes: as for B1
B19: H2M3563N (antibody, mouse IgG2, V domains shown)
VH: B16 VH with Q3H, R13Q, T57S, I70V, P88G, A104G, Y107G, Y108K
VL: B15 VL with I15V, N28S, S30R, A43V, S76N, E81D, T94N
notes: as for B1
B20: H1H5763P (antibody, human IgG1, V domains shown)
VH: QVQLVESGGGVVQPGRSLRLSCAASGLTFSSYGMHWVRQAPGKGLEWVAVISYDGSNKYYTDSVKGRFTISRDNSKNTLYLQMNSLRAEDTAVYYCAKGAMVRGVPYNYYYGMDVWGQGTTVTVSS
VL: DIQMTQSPSSLSASVGDRVTITCRASQGIRNDLGWYQQKPGKAPKRLIYAASSLQSGVPSRFSGSGSGTEFTLTISSLQPEDFATYYCLQHNSYPYTFGQGTKLEIK
notes: H1H: human IgG1 Fc

Each binder was assayed against T1, human CD3 expressed on cells (Jurkat cells, a CD3+ human T-cell line; human PBMC T cells) (human, UniProt P07766 23-207; P04234 22-171) (assay: FACS on Jurkat cells).
T1 construct: Cell-surface CD3 within the T cell receptor complex
Protocol: (§1) FACS data was acquired using the following protocol: Cells at 2×10⁵ per well were incubated with serially diluted antibodies for 30 min on ice. Post incubation, cells were washed and secondary antibody was added and incubated for an additional 30 minutes. After incubation, cells were washed, re-suspended in cold PBS containing 1% BSA and analyzed by flow cytometry with viable Jurkat cells gated by side and forward scatters. The EC₅₀s for cell binding titration were determined using Prism software with values calculated using a 4-parameter non-linear regression analysis.

T1 sequence (P07766 23-207 limits assumed, chain 1 of 2): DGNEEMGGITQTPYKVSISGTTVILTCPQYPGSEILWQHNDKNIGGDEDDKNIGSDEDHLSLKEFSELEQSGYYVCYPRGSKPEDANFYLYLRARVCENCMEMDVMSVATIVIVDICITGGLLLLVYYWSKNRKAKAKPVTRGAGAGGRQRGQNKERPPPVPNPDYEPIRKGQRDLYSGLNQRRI
T1 sequence (P04234 22-171 limits assumed, chain 2 of 2): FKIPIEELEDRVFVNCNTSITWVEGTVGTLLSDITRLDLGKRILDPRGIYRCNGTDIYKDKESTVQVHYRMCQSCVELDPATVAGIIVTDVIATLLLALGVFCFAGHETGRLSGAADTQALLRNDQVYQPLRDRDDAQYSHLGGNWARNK

| Binder | EC50 [nM] |
| --- | --- |
| B1 | 6.77 |
| B2 | 5.99 |
| B3 | 124 |
| B4 | 2.37 |
| B5 | 0.352 |
| B6 | 0.658 |
| B7 | 0.71 |
| B8 | 1.16 |
| B9 | 1.32 |
| B10 | 2.09 |
| B11 | 3.97 |
| B12 | 21.9 |
| B13 | 2.16 |
| B14 | 7.68 |
| B15 | 3.99 |
| B16 | 3.7 |
| B17 | 5.63 |
| B18 | 2.71 |
| B19 | 1.07 |

The binders below were run against T1, human CD3 expressed on cells (Jurkat …) (assay: cell-based or functional assay).

| Binder | EC50 [M] hPBMC Proliferation [M] |
| --- | --- |
| B1 | 3.43e-11 |
| B2 | 1.42e-10 |
| B3 | 1.92e-12 |
| B4 | 3.86e-12 |
| B5 | 4.92e-10 |
| B6 | 2.69e-08 |
| B7 | 2.11e-10 |
| B8 | 6.48e-10 |
| B9 | 1.09e-09 |
| B10 | 2.49e-12 |
| B11 | 2.69e-12 |
| B12 | 1.28e-10 |
| B13 | 2.51e-11 |
| B14 | 6.72e-13 |
| B15 | 3.16e-12 |
| B16 | 6.4e-12 |
| B17 | 6.12e-12 |
| B18 | 5.02e-12 |
| B19 | 7.74e-12 |

The binders below were run against T2, human CD3 expressed on cells (Jurkat cells; human T-cells of PBMC) (human, UniProt P09693 23-182; P20963 22-164) (assay: cell-based or functional assay).
T2 sequence (chain, as listed by the source, chain 1 of 4): as the sequence (P07766 23-207 limits assumed, chain 1 of 2) above
T2 sequence (chain, as listed by the source, chain 2 of 4): as the sequence (P04234 22-171 limits assumed, chain 2 of 2) above
T2 sequence (P09693 23-182, chain 3 of 4): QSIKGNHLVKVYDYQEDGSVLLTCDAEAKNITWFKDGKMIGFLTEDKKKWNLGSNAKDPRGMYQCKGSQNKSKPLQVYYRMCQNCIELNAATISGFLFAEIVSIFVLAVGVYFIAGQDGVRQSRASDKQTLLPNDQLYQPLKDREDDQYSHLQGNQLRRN
T2 sequence (P20963 22-164, chain 4 of 4): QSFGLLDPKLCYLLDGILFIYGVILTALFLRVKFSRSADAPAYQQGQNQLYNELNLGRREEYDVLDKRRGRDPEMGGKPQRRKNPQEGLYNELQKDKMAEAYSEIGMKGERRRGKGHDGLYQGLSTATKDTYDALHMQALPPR

| Binder | EC50 [M] hPBMC Proliferation [M] |
| --- | --- |
| B20 | 3.11e-13 |

The binders below were run against T3, Soluble heterodimeric CD3 protein (hCD3-epsilon/hCD3-delta) with either a human Fc tag (hFcΔAdp/hFc) or a … (human, UniProt P07766 23-126; P04234 22-105) (assay: SPR Biacore 25C antigen-capture).
T3 construct: also called hCD3ε/δ; not shown: Fc tag: human (hFcΔAdp/hFc)
Outline: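 Rate constants fitted to a 1:1 model, giving KD as kd/ka and dissociative half-life as ln2/(60·kd) minutes. Antibodies flowed over CD3ε/δ heterodimer captured on anti-human or anti-mouse Fc surfaces, run on a Biacore T200 at 25 °C.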

T3 sequence (P07766 23-126 limits assumed, stated change not applied, chain 1 of 2): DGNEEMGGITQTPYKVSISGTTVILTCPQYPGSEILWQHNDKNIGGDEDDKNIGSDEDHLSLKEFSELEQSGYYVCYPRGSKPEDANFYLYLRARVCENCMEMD
T3 sequence (P04234 22-105 limits assumed, stated change not applied, chain 2 of 2): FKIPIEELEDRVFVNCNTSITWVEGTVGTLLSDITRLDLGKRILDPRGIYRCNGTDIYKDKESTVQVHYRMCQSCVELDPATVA

| Binder | Kd [nM] | T½ [min] | koff [s⁻¹] | kon [M⁻¹ s⁻¹] |
| --- | --- | --- | --- | --- |
| B1 | 0.254 | 1160 | 9.98e-06 | 39400 |
| B2 | 0.238 | 1170 | 9.9e-06 | 41900 |
| B3 | 0.715 | 41 | 0.000285 | 399000 |
| B4 | 0.544 | 38 | 0.000306 | 563000 |
| B5 | 0.135 | 34 | 0.000336 | 2.49e+06 |
| B6 | 0.131 | 51 | 0.000227 | 1.73e+06 |
| B7 | 0.153 | 48 | 0.000243 | 1.59e+06 |
| B8 | 0.151 | 48 | 0.00024 | 1.59e+06 |
| B9 | 0.138 | 53 | 0.000216 | 1.56e+06 |
| B10 | 0.111 | 76 | 0.000152 | 1.37e+06 |
| B11 | 0.0956 | 85 | 0.000136 | 1.42e+06 |
| B12 | 0.295 | 846 | 1.37e-05 | 47500 |
| B13 | 0.554 | 36 | 0.000321 | 580000 |
| B14 | 0.541 | 36 | 0.000321 | 591000 |
| B15 | 0.231 | 20 | 0.000587 | 2.55e+06 |
| B16 | 13.8 | 10 | 0.00116 | 84000 |
| B17 | 0.653 | 145 | 7.96e-05 | 122000 |
| B18 | ≤ 0.0215 | 1160 | ≤ 1e-05 |  |
| B19 | 0.0773 | 242 | 4.77e-05 | 616000 |

What follows are binders tested against T2, human CD3 expressed on cells (Jurkat …) (assay: FACS titration on Jurkat cells (CD3+ human T-cell line)).
Protocol: as §1

| Binder | EC50 [nM] |
| --- | --- |
| B20 | 2.76 |
